Test results reported in PMC4431682, “Est10: A Novel Alkaline Esterase Isolated from Bovine Rumen Belonging to the New Family XV of Lipolytic Enzymes” (PLoS ONE, 2015).

Columns and labels:
Test in all cases: purified protein
Format in all cases: biochemical, uncultured bacterium
Details in all cases: hydrolysis, conditions of the kinetic assay not stated separately (general pNP assay: 100 mM sodium phosphate pH 8.0, Triton, 40 °C)
[1] = test system: T1, CC(=O)Oc1ccc([N+](=O)[O-])cc1
T1 construct: whole 367-residue ORF with its putative signal peptide, N-terminal 6xHis (pET14b), E. coli BL21(DE3) pLysS, Ni-NTA; forward primer codes MIMKKQNFF; GHSQG with Ser189

[2] = test system: T2, CCCC(=O)Oc1ccc([N+](=O)[O-])cc1
T2 construct: whole 367-residue ORF with its putative signal peptide, N-terminal 6xHis (pET14b), E. coli BL21(DE3) pLysS, Ni-NTA; forward primer codes MIMKKQNFF; GHSQG with Ser189

[3] = test system: T3, CCCCCCCCCC(=O)Oc1ccc([N+](=O)[O-])cc1
T3 construct: whole 367-residue ORF with its putative signal peptide, N-terminal 6xHis (pET14b), E. coli BL21(DE3) pLysS, Ni-NTA; forward primer codes MIMKKQNFF; GHSQG with Ser189

Est10 (uncultured bacterium)
Km [1]: 0.3 (0.1) mM
kcat [1]: 0.22 s⁻¹
kcat/Km [1]: 800 M⁻¹ s⁻¹
Km [2]: 0.16 (0.02) mM
kcat [2]: 3.1 s⁻¹
kcat/Km [2]: 19000 M⁻¹ s⁻¹
Km [3]: 0.35 (0.06) mM
kcat [3]: 0.72 s⁻¹
kcat/Km [3]: 2100 M⁻¹ s⁻¹
